In IntAct's records for PubMed 35512704:

B1: Mothers against decapentaplegic homolog 4 (Homo sapiens), Q13485 (parent)
chain: MDNMSITNTPTSNDACLSIVHSLMCHRQGGESETFAKRAIESLVKKLKEKKDELDSLITAITTNGAHPSKCVTIQRTLDGRLQVAGRKGFPHVIYARLWRWPDLHKNELKHVKYCQYAFDLKCDSVCVNPYHYERVVSPGIDLSGLTLQSNAPSSMMVKDEYVHDFEGQPSLSTEGHSIQTIQHPPSNRASTETYSTPALLAPSESNATSTANFPNIPVASTSQPASILGGSHSEGLLQIASGPQPGQQQNGFTGQPATYHHNSTTTWTGSRTAPYTPNLPHHQNGHLQHHPPMPPHPGHYWPVHNELAFQPPISNHPAPEYWCSIAYFEMDVQVGETFKVPSSCPIVTVDGYVDPSGGDRFCLGQLSNVHRTEAIERARLHIGKGVQLECKGEGDVWVRCLSDHAVFVQSYYLDREAGRAPGDAVHKIYPSAYIKVFDLRQCHRQMQQQAATAQAAAAAQAAAVAGNIPGPGSVGGIAPAISLSAAAGIGVDDLRRLCILRMSFVKGWGPDYPRQSIKETPCWIEIHLHRALQLLDEVLHTMPIADPQPLD

Variants of: B1
Conditions: with maga6_human MAGEA6, P43360

Row | effect of a mutation on the interaction | Variant
1 | with no effect | R361H

Variants of: B1
Conditions: with mp2k7_human MAP2K7, O14733

Row | effect of a mutation on the interaction | Variant
2 | with no effect | R361H

Variants of: B1
Conditions: with m3k1_human MAP3K1, Q13233

Row | effect of a mutation on the interaction | Variant
3 | with no effect | R361H

Variants of: B1
Conditions: with mk10_human MAPK10, P53779

Row | effect of a mutation on the interaction | Variant
4 | with no effect | R361H

Variants of: B1
Conditions: with mk14_human MAPK14, Q16539
mk14_human MAPK14, Q16539, sequence (Q16539 whole entry): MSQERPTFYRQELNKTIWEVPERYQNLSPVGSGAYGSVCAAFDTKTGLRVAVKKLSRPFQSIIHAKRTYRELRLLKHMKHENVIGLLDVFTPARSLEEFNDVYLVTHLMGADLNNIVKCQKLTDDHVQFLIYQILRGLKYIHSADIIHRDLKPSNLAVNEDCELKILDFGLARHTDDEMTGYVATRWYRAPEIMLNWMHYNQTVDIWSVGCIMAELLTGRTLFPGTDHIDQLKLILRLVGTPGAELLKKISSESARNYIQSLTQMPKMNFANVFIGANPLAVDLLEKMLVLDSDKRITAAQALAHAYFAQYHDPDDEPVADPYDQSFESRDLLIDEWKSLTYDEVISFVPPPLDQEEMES

Row | effect of a mutation on the interaction | Variant
5 | with no effect | R361H

Variants of: B1
Conditions: with mk03_human MAPK3, P27361

Row | effect of a mutation on the interaction | Variant
6 | with no effect | R361H

Variants of: B1
Conditions: with mk04_human MAPK4, P31152

Row | effect of a mutation on the interaction | Variant
7 | with no effect | R361H

Variants of: B1
Conditions: with mk06_human MAPK6, Q16659

Row | effect of a mutation on the interaction | Variant
8 | with no effect | R361H

Variants of: B1
Conditions: with mk07_human MAPK7, Q13164

Row | effect of a mutation on the interaction | Variant
9 | with no effect | R361H

Variants of: B1
Conditions: with mcl1_human MCL1, Q07820

Row | effect of a mutation on the interaction | Variant
10 | with no effect | R361H

Variants of: B1
Conditions: with myc_human MYC

Row | effect of a mutation on the interaction | Variant
11 | with no effect | R361H

Variants of: B1
Conditions: with nf1_human NF1, P21359

Row | effect of a mutation on the interaction | Variant
12 | with no effect | R361H

Variants of: B1
Conditions: with merl_human NF2, P35240

Row | effect of a mutation on the interaction | Variant
13 | with no effect | R361H

Variants of: B1
Conditions: with nfic_human NFIC

Row | effect of a mutation on the interaction | Variant
14 | with no effect | R361H

Variants of: B1
Conditions: with nsd3_human NSD3, Q9BZ95

Row | effect of a mutation on the interaction | Variant
15 | with no effect | R361H

Variants of: B1
Conditions: with pak3_human PAK3, O75914

Row | effect of a mutation on the interaction | Variant
16 | with no effect | R361H

Variants of: B1
Conditions: with pax5_human PAX5, Q02548

Row | effect of a mutation on the interaction | Variant
17 | with no effect | R361H

Variants of: B1
Conditions: with pax9_human PAX9, P55771

Row | effect of a mutation on the interaction | Variant
18 | with no effect | R361H

Variants of: B1
Conditions: with pcbp1_human PCBP1, Q15365
pcbp1_human PCBP1, Q15365, sequence (Q15365 whole entry): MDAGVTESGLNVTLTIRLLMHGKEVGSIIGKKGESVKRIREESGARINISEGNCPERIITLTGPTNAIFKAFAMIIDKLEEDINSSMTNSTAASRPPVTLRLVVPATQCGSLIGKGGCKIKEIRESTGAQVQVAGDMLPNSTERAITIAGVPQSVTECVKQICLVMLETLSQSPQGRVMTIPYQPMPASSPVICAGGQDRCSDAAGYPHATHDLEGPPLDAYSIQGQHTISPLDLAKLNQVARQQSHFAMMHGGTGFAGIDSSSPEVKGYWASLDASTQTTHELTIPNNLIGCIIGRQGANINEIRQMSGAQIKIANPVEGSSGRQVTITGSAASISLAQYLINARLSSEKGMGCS

Row | effect of a mutation on the interaction | Variant
19 | with no effect | R361H

Variants of: B1
Conditions: with pgfra_human PDGFRA

Row | effect of a mutation on the interaction | Variant
20 | with no effect | R361H

Variants of: B1
Conditions: with pgfrb_human PDGFRB

Row | effect of a mutation on the interaction | Variant
21 | with no effect | R361H

Variants of: B1
Conditions: with pdk1_human PDK1, Q15118

Row | effect of a mutation on the interaction | Variant
22 | with no effect | R361H

Variants of: B1
Conditions: with PIK3C2B

Row | effect of a mutation on the interaction | Variant
23 | with no effect | R361H

Variants of: B1
Conditions: with pk3c3_human PIK3C3, Q8NEB9

Row | effect of a mutation on the interaction | Variant
24 | with no effect | R361H

Variants of: B1
Conditions: with pk3ca_human PIK3CA

Row | effect of a mutation on the interaction | Variant
25 | with no effect | R361H

Variants of: B1
Conditions: with pk3cg_human PIK3CG

Row | effect of a mutation on the interaction | Variant
26 | with no effect | R361H

Variants of: B1
Conditions: with p85a_human PIK3R1, P27986

Row | effect of a mutation on the interaction | Variant
27 | with no effect | R361H

Variants of: B1
Conditions: with p85b_human PIK3R2, O00459

Row | effect of a mutation on the interaction | Variant
28 | with no effect | R361H

Variants of: B1
Conditions: with dpod1_human POLD1, P28340

Row | effect of a mutation on the interaction | Variant
29 | with no effect | R361H

Variants of: B1
Conditions: with dpoe1_human POLE

Row | effect of a mutation on the interaction | Variant
30 | with no effect | R361H

Variants of: B1
Conditions: with lipa1_human PPFIA1, Q13136

Row | effect of a mutation on the interaction | Variant
31 | with no effect | R361H

Variants of: B1
Conditions: with 2aaa_human PPP2R1A

Row | effect of a mutation on the interaction | Variant
32 | with no effect | R361H

Variants of: B1
Conditions: with prdm1_human PRDM1, O75626

Row | effect of a mutation on the interaction | Variant
33 | with no effect | R361H

Variants of: B1
Conditions: with aapk2_human PRKAA2, P54646

Row | effect of a mutation on the interaction | Variant
34 | with no effect | R361H

Variants of: B1
Conditions: with prss8_human PRSS8, Q16651

Row | effect of a mutation on the interaction | Variant
35 | with no effect | R361H

Variants of: B1
Conditions: with ptk6_human PTK6, Q13882

Row | effect of a mutation on the interaction | Variant
36 | with no effect | R361H

Variants of: B1
Conditions: with tf65_human RELA

Row | effect of a mutation on the interaction | Variant
37 | with no effect | R361H

Variants of: B1
Conditions: with rnf43_human RNF43, Q68DV7

Row | effect of a mutation on the interaction | Variant
38 | with no effect | R361H

Variants of: B1
Conditions: with ros1_human ROS1, P08922
ros1_human ROS1, P08922, sequence (P08922 whole entry): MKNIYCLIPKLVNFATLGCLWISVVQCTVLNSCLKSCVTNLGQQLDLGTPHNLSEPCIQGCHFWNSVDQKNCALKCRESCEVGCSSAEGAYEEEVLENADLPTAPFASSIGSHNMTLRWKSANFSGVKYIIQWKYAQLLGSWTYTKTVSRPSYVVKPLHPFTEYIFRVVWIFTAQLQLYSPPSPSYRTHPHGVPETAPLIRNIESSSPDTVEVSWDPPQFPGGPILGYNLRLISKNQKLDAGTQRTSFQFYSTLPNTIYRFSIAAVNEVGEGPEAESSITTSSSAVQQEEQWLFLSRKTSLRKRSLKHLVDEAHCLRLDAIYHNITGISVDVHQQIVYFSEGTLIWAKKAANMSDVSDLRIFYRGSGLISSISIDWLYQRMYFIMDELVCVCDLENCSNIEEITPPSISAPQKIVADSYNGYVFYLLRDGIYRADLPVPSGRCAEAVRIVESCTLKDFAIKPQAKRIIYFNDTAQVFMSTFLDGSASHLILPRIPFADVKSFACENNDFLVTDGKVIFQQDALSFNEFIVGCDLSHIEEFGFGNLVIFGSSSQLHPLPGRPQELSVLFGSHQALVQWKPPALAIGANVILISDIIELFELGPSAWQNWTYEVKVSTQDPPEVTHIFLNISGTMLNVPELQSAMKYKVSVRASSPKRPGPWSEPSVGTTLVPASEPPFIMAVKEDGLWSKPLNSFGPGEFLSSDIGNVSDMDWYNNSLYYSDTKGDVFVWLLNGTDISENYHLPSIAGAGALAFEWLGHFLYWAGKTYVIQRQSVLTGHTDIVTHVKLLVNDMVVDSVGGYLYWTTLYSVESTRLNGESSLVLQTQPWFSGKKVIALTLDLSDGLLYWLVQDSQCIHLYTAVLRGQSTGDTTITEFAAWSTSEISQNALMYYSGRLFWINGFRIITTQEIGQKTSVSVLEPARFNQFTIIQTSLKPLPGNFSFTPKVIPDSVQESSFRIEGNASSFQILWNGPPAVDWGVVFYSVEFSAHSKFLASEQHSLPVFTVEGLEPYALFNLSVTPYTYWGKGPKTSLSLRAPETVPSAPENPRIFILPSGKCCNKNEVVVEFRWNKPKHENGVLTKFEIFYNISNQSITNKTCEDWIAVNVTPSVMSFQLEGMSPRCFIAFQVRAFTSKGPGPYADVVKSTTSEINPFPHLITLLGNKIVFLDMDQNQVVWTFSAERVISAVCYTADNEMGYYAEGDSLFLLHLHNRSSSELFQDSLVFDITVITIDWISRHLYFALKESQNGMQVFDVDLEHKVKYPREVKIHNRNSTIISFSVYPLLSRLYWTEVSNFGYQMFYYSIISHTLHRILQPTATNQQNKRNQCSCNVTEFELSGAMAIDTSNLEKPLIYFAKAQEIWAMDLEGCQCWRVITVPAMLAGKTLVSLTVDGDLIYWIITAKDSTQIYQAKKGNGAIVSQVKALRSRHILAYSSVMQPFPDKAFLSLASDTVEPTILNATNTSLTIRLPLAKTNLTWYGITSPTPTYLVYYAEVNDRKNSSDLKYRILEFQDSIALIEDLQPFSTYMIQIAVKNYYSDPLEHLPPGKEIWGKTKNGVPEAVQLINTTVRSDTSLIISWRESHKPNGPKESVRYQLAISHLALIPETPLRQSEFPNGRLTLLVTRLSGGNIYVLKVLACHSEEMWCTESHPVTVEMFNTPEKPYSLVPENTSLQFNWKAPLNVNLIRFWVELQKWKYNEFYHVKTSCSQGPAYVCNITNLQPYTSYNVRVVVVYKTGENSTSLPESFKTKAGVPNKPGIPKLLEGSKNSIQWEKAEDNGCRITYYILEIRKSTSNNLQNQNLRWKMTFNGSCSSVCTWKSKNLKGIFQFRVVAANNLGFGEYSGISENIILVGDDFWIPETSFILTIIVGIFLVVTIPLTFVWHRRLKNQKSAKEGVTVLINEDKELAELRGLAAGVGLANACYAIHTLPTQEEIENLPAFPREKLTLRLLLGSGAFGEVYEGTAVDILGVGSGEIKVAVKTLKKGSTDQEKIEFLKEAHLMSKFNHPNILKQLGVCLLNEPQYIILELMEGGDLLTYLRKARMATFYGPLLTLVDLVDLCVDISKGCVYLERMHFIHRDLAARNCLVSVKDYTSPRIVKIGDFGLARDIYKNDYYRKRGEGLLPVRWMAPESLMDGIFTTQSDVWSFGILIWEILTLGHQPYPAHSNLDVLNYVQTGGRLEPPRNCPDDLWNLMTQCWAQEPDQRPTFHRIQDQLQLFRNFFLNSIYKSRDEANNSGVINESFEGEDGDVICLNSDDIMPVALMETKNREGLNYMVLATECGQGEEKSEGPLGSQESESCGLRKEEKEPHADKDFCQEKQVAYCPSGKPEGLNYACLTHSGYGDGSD

Row | effect of a mutation on the interaction | Variant
39 | with no effect | R361H

Variants of: B1
Conditions: with rl5_human RPL5, P46777

Row | effect of a mutation on the interaction | Variant
40 | with no effect | R361H

Variants of: B1
Conditions: with runx1_human RUNX1, Q01196

Row | effect of a mutation on the interaction | Variant
41 | with no effect | R361H

Variants of: B1
Conditions: with ruvb1_human RUVBL1, Q9Y265

Row | effect of a mutation on the interaction | Variant
42 | with no effect | R361H

Variants of: B1
Conditions: with rxra_human RXRA

Row | effect of a mutation on the interaction | Variant
43 | with no effect | R361H

Variants of: B1
Conditions: with sdha_human SDHA

Row | effect of a mutation on the interaction | Variant
44 | with no effect | R361H

Variants of: B1
Conditions: with setb1_human SETDB1, Q15047

Row | effect of a mutation on the interaction | Variant
45 | with no effect | R361H

Variants of: B1
Conditions: with sf3b1_human SF3B1, O75533

Row | effect of a mutation on the interaction | Variant
46 | with no effect | R361H

Variants of: B1
Conditions: with skp2_human SKP2, Q13309

Row | effect of a mutation on the interaction | Variant
47 | with no effect | R361H

Variants of: B1
Conditions: with smad1_human SMAD1, Q15797

Row | effect of a mutation on the interaction | Variant
48 | with no effect | R361H

Variants of: B1
Conditions: with smad2_human SMAD2, Q15796

Row | effect of a mutation on the interaction | Variant
49 | with no effect | R361H

Variants of: B1
Conditions: with smad3_human SMAD3, P84022
smad3_human SMAD3, P84022, sequence (P84022 whole entry, looked up): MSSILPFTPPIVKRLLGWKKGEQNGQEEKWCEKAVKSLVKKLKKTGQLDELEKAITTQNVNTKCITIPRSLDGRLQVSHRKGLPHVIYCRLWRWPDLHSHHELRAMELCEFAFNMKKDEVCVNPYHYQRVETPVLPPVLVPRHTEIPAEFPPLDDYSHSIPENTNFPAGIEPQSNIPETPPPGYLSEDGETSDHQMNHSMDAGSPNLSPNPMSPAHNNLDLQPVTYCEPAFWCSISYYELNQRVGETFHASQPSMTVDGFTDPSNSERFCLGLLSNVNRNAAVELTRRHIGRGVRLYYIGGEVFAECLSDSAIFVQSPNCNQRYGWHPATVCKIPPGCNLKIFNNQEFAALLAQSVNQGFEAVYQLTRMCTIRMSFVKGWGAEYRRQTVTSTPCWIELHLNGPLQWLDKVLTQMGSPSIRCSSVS

Row | effect of a mutation on the interaction | Variant
50 | with no effect | R361H

Variants of: B1
Conditions: with smca4_human SMARCA4, P51532

Row | effect of a mutation on the interaction | Variant
51 | with no effect | R361H

Variants of: B1
Conditions: with snf5_human SMARCB1, Q12824

Row | effect of a mutation on the interaction | Variant
52 | with no effect | R361H

Variants of: B1
Conditions: with smo_human SMO

Row | effect of a mutation on the interaction | Variant
53 | with no effect | R361H

Variants of: B1
Conditions: with sox10_human SOX10, P56693

Row | effect of a mutation on the interaction | Variant
54 | with no effect | R361H

Variants of: B1
Conditions: with sox2_human SOX2, P48431

Row | effect of a mutation on the interaction | Variant
55 | with no effect | R361H

Variants of: B1
Conditions: with sox3_human SOX3, P41225

Row | effect of a mutation on the interaction | Variant
56 | with no effect | R361H

Variants of: B1
Conditions: with sox4_human SOX4, Q06945

Row | effect of a mutation on the interaction | Variant
57 | with no effect | R361H

Variants of: B1
Conditions: with sox9_human SOX9, P48436

Row | effect of a mutation on the interaction | Variant
58 | with no effect | R361H

Variants of: B1
Conditions: with spop_human SPOP

Row | effect of a mutation on the interaction | Variant
59 | with no effect | R361H

Variants of: B1
Conditions: with src_human SRC

Row | effect of a mutation on the interaction | Variant
60 | with no effect | R361H

Variants of: B1
Conditions: with stat3_human STAT3, P40763

Row | effect of a mutation on the interaction | Variant
61 | with no effect | R361H

Variants of: B1
Conditions: with stk38_human STK38, Q15208

Row | effect of a mutation on the interaction | Variant
62 | with no effect | R361H

Variants of: B1
Conditions: with ksyk_human SYK

Row | effect of a mutation on the interaction | Variant
63 | with no effect | R361H

Variants of: B1
Conditions: with eloc_human ELOC

Row | effect of a mutation on the interaction | Variant
64 | with no effect | R361H

Variants of: B1
Conditions: with tfe2_human TCF3, P15923

Row | effect of a mutation on the interaction | Variant
65 | with no effect | R361H

Variants of: B1
Conditions: with tead1_human TEAD1, P28347

Row | effect of a mutation on the interaction | Variant
66 | with no effect | R361H

Variants of: B1
Conditions: with tead2_human TEAD2, Q15562

Row | effect of a mutation on the interaction | Variant
67 | with no effect | R361H

Variants of: B1
Conditions: with tead3_human TEAD3, Q99594

Row | effect of a mutation on the interaction | Variant
68 | with no effect | R361H

Variants of: B1
Conditions: with tgfr2_human TGFBR2, P37173

Row | effect of a mutation on the interaction | Variant
69 | with no effect | R361H

Variants of: B1
Conditions: with tnr14_human TNFRSF14, Q92956

Row | effect of a mutation on the interaction | Variant
70 | with no effect | R361H

Variants of: B1
Conditions: with tpx2_human TPX2, Q9ULW0

Row | effect of a mutation on the interaction | Variant
71 | with no effect | R361H

Variants of: B1
Conditions: with trrap_human TRRAP

Row | effect of a mutation on the interaction | Variant
72 | with no effect | R361H

Variants of: B1
Conditions: with tsc2_human TSC2, P49815

Row | effect of a mutation on the interaction | Variant
73 | with no effect | R361H

Variants of: B1
Conditions: with tshr_human TSHR

Row | effect of a mutation on the interaction | Variant
74 | with no effect | R361H

Variants of: B1
Conditions: with vhl_human VHL

Row | effect of a mutation on the interaction | Variant
75 | with no effect | R361H

Variants of: B1
Conditions: with wt1_human WT1, P19544
wt1_human WT1, P19544, sequence (P19544 whole entry): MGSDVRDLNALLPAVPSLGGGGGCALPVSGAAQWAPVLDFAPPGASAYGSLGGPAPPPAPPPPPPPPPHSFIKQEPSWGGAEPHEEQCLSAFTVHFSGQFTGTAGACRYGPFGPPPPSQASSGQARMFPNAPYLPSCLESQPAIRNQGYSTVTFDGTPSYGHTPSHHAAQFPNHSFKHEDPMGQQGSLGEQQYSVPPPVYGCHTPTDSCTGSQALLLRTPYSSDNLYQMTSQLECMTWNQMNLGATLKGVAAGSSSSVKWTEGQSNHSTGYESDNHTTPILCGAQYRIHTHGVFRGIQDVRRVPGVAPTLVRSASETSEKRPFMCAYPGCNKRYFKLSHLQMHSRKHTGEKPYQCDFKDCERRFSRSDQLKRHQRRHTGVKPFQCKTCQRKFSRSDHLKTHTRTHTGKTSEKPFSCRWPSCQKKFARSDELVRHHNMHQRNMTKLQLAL

Row | effect of a mutation on the interaction | Variant
76 | with no effect | R361H

Variants of: B1
Conditions: with wwtr1_human WWTR1, Q9GZV5

Row | effect of a mutation on the interaction | Variant
77 | with no effect | R361H

Variants of: B1
Conditions: with xpo1_human XPO1, O14980
xpo1_human XPO1, O14980, sequence (O14980 whole entry): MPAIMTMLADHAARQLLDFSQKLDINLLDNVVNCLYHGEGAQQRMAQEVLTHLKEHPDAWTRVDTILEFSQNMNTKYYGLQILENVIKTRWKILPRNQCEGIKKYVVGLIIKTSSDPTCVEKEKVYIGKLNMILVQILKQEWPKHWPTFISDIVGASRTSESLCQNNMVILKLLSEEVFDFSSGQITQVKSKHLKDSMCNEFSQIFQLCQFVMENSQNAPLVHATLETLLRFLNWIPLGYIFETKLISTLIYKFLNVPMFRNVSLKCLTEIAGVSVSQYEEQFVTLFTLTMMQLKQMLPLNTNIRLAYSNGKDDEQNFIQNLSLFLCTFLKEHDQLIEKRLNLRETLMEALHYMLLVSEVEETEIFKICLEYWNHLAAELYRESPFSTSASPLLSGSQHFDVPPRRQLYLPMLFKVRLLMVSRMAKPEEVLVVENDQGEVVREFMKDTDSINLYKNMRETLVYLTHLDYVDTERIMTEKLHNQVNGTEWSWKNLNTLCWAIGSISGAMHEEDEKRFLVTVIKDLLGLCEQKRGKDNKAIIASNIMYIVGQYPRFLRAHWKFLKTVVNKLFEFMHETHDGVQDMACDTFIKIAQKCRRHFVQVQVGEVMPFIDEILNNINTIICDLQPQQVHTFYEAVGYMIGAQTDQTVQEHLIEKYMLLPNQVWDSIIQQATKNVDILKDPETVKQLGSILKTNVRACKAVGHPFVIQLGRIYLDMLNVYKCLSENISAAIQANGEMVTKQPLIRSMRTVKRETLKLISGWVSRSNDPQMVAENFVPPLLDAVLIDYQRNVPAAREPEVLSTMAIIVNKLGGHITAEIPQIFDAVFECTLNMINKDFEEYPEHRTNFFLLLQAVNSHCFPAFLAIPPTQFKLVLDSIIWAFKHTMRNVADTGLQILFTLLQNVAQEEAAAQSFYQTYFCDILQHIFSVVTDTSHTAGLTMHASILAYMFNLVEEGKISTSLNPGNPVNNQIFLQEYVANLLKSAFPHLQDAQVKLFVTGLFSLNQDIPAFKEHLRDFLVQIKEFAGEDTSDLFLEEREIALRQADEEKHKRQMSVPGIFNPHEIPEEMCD

Row | effect of a mutation on the interaction | Variant
78 | with no effect | R361H

Variants of: B1
Conditions: with 1433b_human YWHAB

Row | effect of a mutation on the interaction | Variant
79 | with no effect | R361H

Variants of: B1
Conditions: with 1433e_human YWHAE

Row | effect of a mutation on the interaction | Variant
80 | with no effect | R361H

Variants of: B1
Conditions: with 1433z_human YWHAZ

Row | effect of a mutation on the interaction | Variant
81 | with no effect | R361H

Variants of: B1
Conditions: with smad3_human SMAD3, P84022
Remark: another data set of the same source

Row | effect of a mutation on the interaction | Variant
82 | decreasing interaction strength | R361H
